The values that follow are results of earlier work, collected in publication PMC8296985, “A Covalent Calmodulin Inhibitor as a Tool to Study Cellular Mechanisms of K-Ras-Driven Stemness” (Frontiers in Cell and Developmental Biology, 2021).

pKd: −log10 of the molar value.

Series [1] addresses Calmodulin (Homo sapiens) (UniProt P0DP23). The series can be described thus: fluorescence polarization. (Polarisation of emitted light reports the rotation of a fluorescent probe.)
In series [2] the target is Calmodulin N-terminal lobe (Homo sapiens) (UniProt P0DP23).
Series [3] has as its target Calmodulin C-terminal lobe (Homo sapiens) (UniProt P0DP23).

Take F-PMCA peptide (from UniProt P20020): the pKd in series [1] is 8.22. On to K-Ras (from UniProt P01116), for which the pKd was 5.40 in series [2] and 6.30 in series [3].

As a reminder, the pKd is the negative decadic logarithm of the Kd, by convention in mol/L.
